Literature values as cited in paper PMC10823516.

Biological target: HER2 ECD (Homo sapiens) (UniProt P04626)

Trastuzumab Fab Fab
Kd: 2 nM
